These results are taken from publication PMC10353453 (Molecular cell, 2022).

The data set “cross-linking” concerns the molecule itself. Put plainly: cross-linking.
The data set “mass photometry” deals with the molecule itself. Put plainly: mass photometry.
The data set “SAXS” deals with the molecule itself. Put plainly: SAXS.

B1: NADK2 expressed in HEK293E cells (full-length human NADK2 cDNA with a C-terminal FLAG-tag) (enzyme, UniProt Q4G0N4 63-442, looked up)
chain: DGGFRPSRVVVVAKTTRYEFEQQRYRYAELSEEDLKQLLALKGSSYSGLLERHHIHTKNVEHIIDSLRNEGIEVRLVKRREYDEETVRWADAVIAAGGDGTMLLAASKVLDRLKPVIGVNTDPERSEGHLCLPVRYTHSFPEALQKFYRGEFRWLWRQRIRLYLEGTGINPVPVDLHEQQLSLNQHNRALNIERAHDERSEASGPQLLPVRALNEVFIGESLSSRASYYEISVDDGPWEKQKSSGLNLCTGTGSKAWSFNINRVATQAVEDVLNIAKRQGNLSLPLNRELVEKVTNEYNESLLYSPEEPKILFSIREPIANRVFSSSRQRCFSSKVCVRSRCWDACMVVDGGTSFEFNDGAIASMMINKEDELRTVLLEQ
For B1, in the data set “cross-linking”, the stoichiometry N (as a rule, the number of molecules, sites or subunits per partner or assembly) turned out to be 2.

B2: His-NADK2^Δ231–266 (aa 61–442) (enzyme, human, UniProt Q4G0N4 61-442, looked up)
chain: RADGGFRPSRVVVVAKTTRYEFEQQRYRYAELSEEDLKQLLALKGSSYSGLLERHHIHTKNVEHIIDSLRNEGIEVRLVKRREYDEETVRWADAVIAAGGDGTMLLAASKVLDRLKPVIGVNTDPERSEGHLCLPVRYTHSFPEALQKFYRGEFRWLWRQRIRLYLEGTGPQLLPVRALNEVFIGESLSSRASYYEISVDDGPWEKQKSSGLNLCTGTGSKAWSFNINRVATQAVEDVLNIAKRQGNLSLPLNRELVEKVTNEYNESLLYSPEEPKILFSIREPIANRVFSSSRQRCFSSKVCVRSRCWDACMVVDGGTSFEFNDGAIASMMINKEDELRTVLLEQ
For B2, the “stoichiometry N” value in “mass photometry” was found to be 2.

B3: His-NADK2^Δ78–114 (aa 61–442) (enzyme, human, UniProt Q4G0N4 61-442, looked up)
chain: RADGGFRPSRVVVVAKTHHIHTKNVEHIIDSLRNEGIEVRLVKRREYDEETVRWADAVIAAGGDGTMLLAASKVLDRLKPVIGVNTDPERSEGHLCLPVRYTHSFPEALQKFYRGEFRWLWRQRIRLYLEGTGINPVPVDLHEQQLSLNQHNRALNIERAHDERSEASGPQLLPVRALNEVFIGESLSSRASYYEISVDDGPWEKQKSSGLNLCTGTGSKAWSFNINRVATQAVEDVLNIAKRQGNLSLPLNRELVEKVTNEYNESLLYSPEEPKILFSIREPIANRVFSSSRQRCFSSKVCVRSRCWDACMVVDGGTSFEFNDGAIASMMINKEDELRTVLLEQ
With B3, the “stoichiometry N” value in the data set “mass photometry” was found to be 2.

B4: His-NADK2^V334R (enzyme, human, UniProt Q4G0N4 61-442, looked up)
chain: RADGGFRPSRVVVVAKTTRYEFEQQRYRYAELSEEDLKQLLALKGSSYSGLLERHHIHTKNVEHIIDSLRNEGIEVRLVKRREYDEETVRWADAVIAAGGDGTMLLAASKVLDRLKPVIGVNTDPERSEGHLCLPVRYTHSFPEALQKFYRGEFRWLWRQRIRLYLEGTGINPVPVDLHEQQLSLNQHNRALNIERAHDERSEASGPQLLPVRALNEVFIGESLSSRASYYEISVDDGPWEKQKSSGLNLCTGTGSKAWSFNINRVATQAVEDRLNIAKRQGNLSLPLNRELVEKVTNEYNESLLYSPEEPKILFSIREPIANRVFSSSRQRCFSSKVCVRSRCWDACMVVDGGTSFEFNDGAIASMMINKEDELRTVLLEQ
For B4, the “stoichiometry N” value in the data set “mass photometry” is 2.

B5: His-NADK2^R378Q (enzyme, human, UniProt Q4G0N4 61-442, looked up)
chain: RADGGFRPSRVVVVAKTTRYEFEQQRYRYAELSEEDLKQLLALKGSSYSGLLERHHIHTKNVEHIIDSLRNEGIEVRLVKRREYDEETVRWADAVIAAGGDGTMLLAASKVLDRLKPVIGVNTDPERSEGHLCLPVRYTHSFPEALQKFYRGEFRWLWRQRIRLYLEGTGINPVPVDLHEQQLSLNQHNRALNIERAHDERSEASGPQLLPVRALNEVFIGESLSSRASYYEISVDDGPWEKQKSSGLNLCTGTGSKAWSFNINRVATQAVEDVLNIAKRQGNLSLPLNRELVEKVTNEYNESLLYSPEEPKILFSIQEPIANRVFSSSRQRCFSSKVCVRSRCWDACMVVDGGTSFEFNDGAIASMMINKEDELRTVLLEQ
Turning to B5, the “stoichiometry N” value in “mass photometry” worked out at 2.

B6: His-NADK2^K304Q (enzyme, human, UniProt Q4G0N4 61-442, looked up)
chain: RADGGFRPSRVVVVAKTTRYEFEQQRYRYAELSEEDLKQLLALKGSSYSGLLERHHIHTKNVEHIIDSLRNEGIEVRLVKRREYDEETVRWADAVIAAGGDGTMLLAASKVLDRLKPVIGVNTDPERSEGHLCLPVRYTHSFPEALQKFYRGEFRWLWRQRIRLYLEGTGINPVPVDLHEQQLSLNQHNRALNIERAHDERSEASGPQLLPVRALNEVFIGESLSSRASYYEISVDDGPWEKQQSSGLNLCTGTGSKAWSFNINRVATQAVEDVLNIAKRQGNLSLPLNRELVEKVTNEYNESLLYSPEEPKILFSIREPIANRVFSSSRQRCFSSKVCVRSRCWDACMVVDGGTSFEFNDGAIASMMINKEDELRTVLLEQ
For B6, in the data set “mass photometry”, the “stoichiometry N” value is 2.

B7: His-NADK2^S188A (enzyme, human, UniProt Q4G0N4 61-442, looked up)
chain: RADGGFRPSRVVVVAKTTRYEFEQQRYRYAELSEEDLKQLLALKGSSYSGLLERHHIHTKNVEHIIDSLRNEGIEVRLVKRREYDEETVRWADAVIAAGGDGTMLLAASKVLDRLKPVIGVNTDPERAEGHLCLPVRYTHSFPEALQKFYRGEFRWLWRQRIRLYLEGTGINPVPVDLHEQQLSLNQHNRALNIERAHDERSEASGPQLLPVRALNEVFIGESLSSRASYYEISVDDGPWEKQKSSGLNLCTGTGSKAWSFNINRVATQAVEDVLNIAKRQGNLSLPLNRELVEKVTNEYNESLLYSPEEPKILFSIREPIANRVFSSSRQRCFSSKVCVRSRCWDACMVVDGGTSFEFNDGAIASMMINKEDELRTVLLEQ
In the case of B7, the “stoichiometry N” value in “mass photometry” worked out at 2.

B8: His-NADK2^K76Q (enzyme, human, UniProt Q4G0N4 61-442, looked up)
chain: RADGGFRPSRVVVVAQTTRYEFEQQRYRYAELSEEDLKQLLALKGSSYSGLLERHHIHTKNVEHIIDSLRNEGIEVRLVKRREYDEETVRWADAVIAAGGDGTMLLAASKVLDRLKPVIGVNTDPERSEGHLCLPVRYTHSFPEALQKFYRGEFRWLWRQRIRLYLEGTGINPVPVDLHEQQLSLNQHNRALNIERAHDERSEASGPQLLPVRALNEVFIGESLSSRASYYEISVDDGPWEKQKSSGLNLCTGTGSKAWSFNINRVATQAVEDVLNIAKRQGNLSLPLNRELVEKVTNEYNESLLYSPEEPKILFSIREPIANRVFSSSRQRCFSSKVCVRSRCWDACMVVDGGTSFEFNDGAIASMMINKEDELRTVLLEQ
With B8, the “stoichiometry N” value in “mass photometry” is 2.

B9: human NADK2 (aa 61–442 with an N terminus His-tag) (enzyme, UniProt Q4G0N4 61-442, looked up)
chain: RADGGFRPSRVVVVAKTTRYEFEQQRYRYAELSEEDLKQLLALKGSSYSGLLERHHIHTKNVEHIIDSLRNEGIEVRLVKRREYDEETVRWADAVIAAGGDGTMLLAASKVLDRLKPVIGVNTDPERSEGHLCLPVRYTHSFPEALQKFYRGEFRWLWRQRIRLYLEGTGINPVPVDLHEQQLSLNQHNRALNIERAHDERSEASGPQLLPVRALNEVFIGESLSSRASYYEISVDDGPWEKQKSSGLNLCTGTGSKAWSFNINRVATQAVEDVLNIAKRQGNLSLPLNRELVEKVTNEYNESLLYSPEEPKILFSIREPIANRVFSSSRQRCFSSKVCVRSRCWDACMVVDGGTSFEFNDGAIASMMINKEDELRTVLLEQ
For the protein B9, the “stoichiometry N” value in “SAXS” was 2.
